Experimental findings from patent US20060148057A1, “Thioredoxin mutants and uses thereof” (priority 2002, published 2006) are described below.

The subject of one assay is Akt. The assay can be described thus: ASK1-induced inhibition of IGF1-induced Akt phosphorylation in EC (Western blot p-Ser473). Type of assay: cell-based, Bovine. The settings on record: co-expression with ASK1, IGF1 10 ng/ml for 10 min. The protocol: EC were transfected with plasmids as indicated: control vector (VC), HA-Akt, HA-ASK1 with different Trx constructs. Cells were treated with IGF1 (10 ng/ml for 10 min). Akt hosphorylation was examined by western blot with phospho-Akt (Ser473)-specific antibody (p-Akt). Akt and ASK1 expression were determined by western blot with anti-HA.
To determine a role of ASK1 in ROS/TNF-induced IR (impairment of insulin/IGF1 signaling) in EC, the effects of ASK1 activation on IGF1-induced phosphorylation of IRS-1, Akt and eNOS activity were examined. IGF-1 was chosen because cultured EC express IGF1 receptor at higher level than that of insulin receptor. BAEC were transfected with VC or ASK1 expression construct, cells were treated with IGF1 (10 ng/ml) for indicated time. SOCS3 was used as a control which has been shown as a suppressor of IRS-1 activation. Activation (tyrosine phosphorylation) of IRS-1 was determined by IP/Western blot with anti-phosphotyrosine. Akt phosphorylation at Ser-473, a hallmarker for Atk activity was determined by Western blot with p-Ser473-specific antibody. The eNOS enzymatic activity was also by an enzymatic assay based on the conversion of 3H-L-arginine to 3H-citrulline (Calbiochem, Nitric Oxide Synthase Assay Kit).
To determine if Trx protects ASK1-induced inhibition on IGF1 signaling, Trx and ASK1 were coexpressed as in the above experiments. […] To test this, the effects of TZDs (insulin-sensitizers) and statins on ASK1 activity were tested. […] Inhibition of ASK1 may due to their anti-oxidant activities of these drugs which may be indirect by inhibiting TNF-dependent generation of ROS.

A further assay deals with BAEC. The assay can be described thus: GFP killing assay, TNF+CHX-induced EC death. It is filed as cell-based, Bovine. The settings on record: TNF 10 ng/ml plus CHX 10 μg/ml for 24 h; vector control 25% survival. The protocol:
Trx inhibits ASK1-induced JNK activation and caspase 3 activity. BAEC were co-transfected with ASK1 and Trx constructs in 1:1 ratio as indicated: control vector alone (Ctrl), ASK1 with VC, Trx-WT, Trx-CS, Trx-C32S or Trx-C35S. 24 h post-transfection, cell lysates were used to examine JNK and caspase 3 activity. […] JNK activity was measured by an in vitro kinase assay GST-c-Jun as a substrate. Trx expression was determined by Western blot anti-Flag. […] Caspase 3 activity was measured by Sigma's Caspase 3 Fluorometric Assay Kit in the absence or presence of caspase 3 inhibitor Ac-DEVD-CHO. Assay was performed as duplicates. Caspase 3 activities were normalized with the Ctrl group (as zero). Data are presented from mean of two independent experiments. […] 48 h after transfection, GFP-positive cells were counted as survival cells. […] GFP-positive cells were counted as survival cells. […]
Quantitation of cell killing: Cell killing assay was performed as described previously with a modification (Slowik M R et al. Evidence that tumor necrosis factor triggers apoptosis in human endothelial cells by interleukin-1-converting enzyme-like protease- dependent and -independent pathways. Lab Invest. 77:257-67 (1997)). […] GFP-positive cells were visualized under a fluorescence microscope and counted as number of survival cells. […]

B1: thioredoxin (protein)
chain: MVKQIESKTAFQEALDAAGDKLVVVDFSATWCGPCKMIKPFFHSLSEKYSNVIFLEVDVDDCQDVASECEVKCMPTFQFFKKGQKVGEFSGANKEKLEATINELV
modifications: Flag tag or GST fusion
notes: Flag-tagged or GST fusion
On to B1, for which, in the assay on Akt, the “ASK1-induced reduction of Akt phosphorylation” value (from here on “ASK1-induced reduction”) was “prevents”.

B2: Trx-C32S: C32S single mutant of Trx at the catalytic site, SEQ ID NO:2 (protein)
chain: MVKQIESKTAFQEALDAAGDKLVVVDFSATWSGPCKMIKPFFHSLSEKYSNVIFLEVDVDDCQDVASECEVKCMPTFQFFKKGQKVGEFSGANKEKLEATINELV
B2: the “ASK1-induced reduction” value in the assay with Akt is on record as “prevents”.

B3: Trx-C35S: C35S single mutant of Trx at the catalytic site, SEQ ID NO:3 (protein)
chain: MVKQIESKTAFQEALDAAGDKLVVVDFSATWCGPSKMIKPFFHSLSEKYSNVIFLEVDVDDCQDVASECEVKCMPTFQFFKKGQKVGEFSGANKEKLEATINELV
On to B3, for which, in the assay with BAEC, the “survival after TNF+CHX (GFP-positive cells, Ctrl as 100%)” value is recorded as 100±12%. Moreover, in the assay with Akt, the “ASK1-induced reduction” value was “prevents”.
